Measurements published in patent publication US20200277374A1 (Alector, published 2020).
Where a chain is given by its changes, count along the chain named.

B1: anti-Siglec-7 antibody 4E3 (antibody, V domains shown)
VH: EVQLVESGGALVKPGGSLKISCAVSGFIFSNYDMSWVRQNPEKRLEWVATISSGGGYTYYPDSVKGRFTISRDNAKNALYLQMSSLRSEDTALYYCTRHGYGNYDWYFDVWGAGATVTVSS
VL: QIVLTQSPAILSASPGEKVTMTCSANSSFTYMYWYQQKPGSSPRLLIFDTSNLASGVPIRFSGSGSGTSYSLTISRMEAEDTATYYCQQWSSSPLTFGAGTKLELK
notes: VL FR1 there holds a Z); also called S7-4E3; mAb S7-4E3
B2: anti-Siglec-7 antibody 3E11 (antibody, V domains shown)
VH: QVQLQQSGAELARPGASVKLSCKASGYIFTDYGITWVKQRTGQGLEWIGEISPRSGETYFNENYRVKATLTADKSSSTAYMQLFSLTSEDSAVYFCAREGNPFTYWGHGTLVTVSA
VL: DVZMTQTPLSLPVSLGDQASISCRSSQSLVHSTGNTYLHWYLQKPGQSPKLLIYKVSNRFCGVPDRFSGSGAGTDFTLKISRVEAEDLGVYFCSQNTHVPYTFGGGTKLEIK
notes: Variable domains assembled from FR and CDR entries
B3: anti-Siglec-7 antibody 4A1 (antibody, V domains shown)
VH: QVQLQQSGSELRSPGSSVKLSCKDFDSEVFPITYMNWVRQKPGHGFEWIGDILPSIGRTMYGEKFEDKATLDADTVSNTAYLELNSLTSEDSAIYYCARSEGYLLAYWGQGTLVTVSA
VL: B2 VL with Z3V, T36I, C61Z, A72S
notes: as for B2
B4: anti-Siglec-7 antibody 7A3 (antibody, V domains shown)
VH: LVZSGGALVKPGGSLKLSCAASGFTFSNYAMSWVRQTPEKRLEWVASISSGGSYNYYPDSVKGRFTISRDNARNTLYLQMSSLRSKDTAMYYCASQSYGSSYWYFDVWGAGTTVTVSS
VL: DIQMTQZPATLSVTPGDRVSLSCRASQSISEYLHWYHQKSHESPRLLIKFASQSICGIPSRFSGSGSGSDFTLTINSVEPEDVGVYYCQNGHNFPYTFGGGTKLEIK
notes: Variable domains assembled from FR and CDR entries; VL FR1 and VH FR1 hold Z and VH FR1 looks shortened at its N-terminus
B5: anti-Siglec-7 antibody 2G1 (antibody, V domains shown)
VH: B1 VH with Q3K, A10T, V24A, I28T, G56D, S63I, V64F, N74D, T97A
VL: VLTQSPAIMSASPGEKVTMTCSANSSFIYMYWYQQKPGSSPRLLIFDTSNLASGVPIRFSGSGSGTSYSLTISRMEAEDTATYYCQQWSSSPLTFGGGTKLELK
notes: Variable domains assembled from FR and CDR entries; the printed VL FR1 looks shortened at its N-terminus; also called 2G11 (misprint in text)

These binders were tested against T1, human Siglec-7 expressed on human cells (primary monocytes, dendritic cells, macrophages, NK cells, … (human, UniProt Q9Y286 19-467)) (assay: cell-based or functional assay).
T1 sequence (Q9Y286 19-467): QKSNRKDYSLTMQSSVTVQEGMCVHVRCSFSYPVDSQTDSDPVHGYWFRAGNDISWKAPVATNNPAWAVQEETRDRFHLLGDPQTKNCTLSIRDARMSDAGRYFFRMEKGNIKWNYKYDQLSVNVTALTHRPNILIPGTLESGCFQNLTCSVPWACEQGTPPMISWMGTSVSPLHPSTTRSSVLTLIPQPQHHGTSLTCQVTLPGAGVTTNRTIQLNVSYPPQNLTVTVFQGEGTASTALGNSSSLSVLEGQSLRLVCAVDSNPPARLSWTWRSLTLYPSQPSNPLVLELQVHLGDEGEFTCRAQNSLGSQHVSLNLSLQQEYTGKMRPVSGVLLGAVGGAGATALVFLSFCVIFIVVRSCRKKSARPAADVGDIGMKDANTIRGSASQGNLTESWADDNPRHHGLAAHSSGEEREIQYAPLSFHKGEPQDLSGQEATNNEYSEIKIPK

In order of rising “Percent Siglec-7 Surface Expression, DCs” value:
1. B4  11%
2. B1  11.2%
3. B2  19.9%
4. B3  99.6%
5. B5  1100%

In order of falling “Percent Siglec-7 Surface Expression, Monocytes” value:
1. B5  140%
2. B3  39.8%
3. B2  23.9%
4. B4  23.7%
5. B1  15.1%

In order of falling “Percent Siglec-7 Surface Expression, U937 cells” value:
1. B5  121%
2. B3  89.5%
3. B2  82.4%
4. B4  76.3%
5. B1  30.8%

Molecular target: T1, human Siglec-7 expressed on human cells …
Test: cell-based or functional assay
Remark: another data set of the same source

In order of falling “Percent Siglec-7 Surface Expression, Macrophages” value:
1. B5  95.7%
2. B3  13.1%
3. B4  8.3%
4. B2  7.4%
5. B1  4.2%

In order of rising “Percent Siglec-7 Surface Expression, Microglia” value:
1. B1  20.9%
2. B3  26.3%
3. B2  34.2%
4. B5  106%

In order of falling “Percent Siglec-7 Surface Expression, NK cells” value:
1. B3  132%
2. B5  114%
3. B2  108%
4. B4  77.1%
5. B1  31.2%

Molecular target: T1, human Siglec-7 expressed on human cells …
Test: cell-based or functional assay
Remark: another data set of the same source

With B1 the “EC50 of Siglec-7 cell surface downregulation, primary human dendritic cells, donor 362” value was 114 pM.

With B1 the “EC50 of Siglec-7 cell surface downregulation, primary human dendritic cells, donor 363” value was 95 pM.

In the case of B1, the “EC50 of Siglec-7 cell surface downregulation, primary human dendritic cells, donor 364” value is reported as 49.9 pM.

In the case of B1, the “EC50 of Siglec-7 cell surface downregulation, primary human dendritic cells, donor 365” value is reported as 33.6 pM.

Each binder was assayed against T1, human Siglec-7 expressed on human cells … (assay: FACS, human primary monocytes, 10 ug/ml mAb).
Procedure: (§1) Initial characterization of Siglec-7 antibodies involved determining their ability to bind Siglec-7 expressed on human primary monocytes, human primary macrophages, human primary dendritic cells, human primary neutrophils, and human primary natural killer (NK) cells. Cells were harvested, plated at 10⁶/ml in a 96 well plate, and incubated in 100 ul PBS containing 2% FBS, 2 mM EDTA and 10 μg/ml Mab and Fc blocking reagent for 1 hour in ice. Cells were washed twice and incubated in 100 ul PBS containing 2% FBS, 2 mM EDTA and 5 ug/ml PE-conjugated secondary antibody for 30 minutes on ice. Cells were washed twice in cold PBS and analyze by flow cytometry on a BD FACS Canto. Data analysis and calculation of MFI values was performed with FlowJo (TreeStar) software version 10.0.7.
(§2) Percent positive binding and mean fluorescent intensity (MFI) values for cell types bound by Siglec-7 antibodies are listed in Table 4A. Binding is compared to an isotype control. The antibodies bind to human primary monocytes, human primary dendritic cells, and human primary macrophages. In Table 4A, “Buffer” refers to cells that were treated only with the PBS buffer described supra; “Secondary Ab” refers to cells that were treated only with the PE-conjugated secondary antibody; “mIgG1,” “mIgG2a,” and “mIgG2b” refer to isotype control antibodies; and “RDS7” refers to commerically available anti-Siglec-7 antibody Mab1138 (R&D Systems; Cat. No. MAB 1138).

In order of falling “% Positive” value:
1. B3  99.4%
2. B5  99.4%
3. B2  98.7%
4. B1  98.6%
5. B4  97.9%

In order of falling MFI:
1. B5  577
2. B3  486
3. B4  407
4. B2  380
5. B1  362

The binders below were run against T1, human Siglec-7 expressed on human cells … (assay: FACS, human primary macrophages, 10 ug/ml mAb).
Procedure: as §1, §2

In order of falling “% Positive” value:
1. B4  99.7%
2. B1  99.6%
3. B2  99.6%
4. B5  99.5%
5. B3  99.3%

In order of rising MFI:
1. B4  2840
2. B2  4040
3. B1  4150
4. B3  14600
5. B5  25700

Each binder was assayed against T1, human Siglec-7 expressed on human cells … (assay: FACS, human primary dendritic cells, 10 ug/ml mAb).
Procedure: as §1, §2

In order of rising “% Positive” value:
1. B2  99.6%
2. B1  99.7%
3. B3  99.7%
4. B4  99.7%
5. B5  99.7%

In order of falling MFI:
1. B5  10200
2. B3  5450
3. B1  2650
4. B2  2520
5. B4  956

The binders below were run against T1, human Siglec-7 expressed on human cells … (assay: FACS titration on primary human dendritic cells, donor 358, 4 C).
Procedure: (§3) Two Siglec-7 antibodies, 4E3 and 10B5, were titrated 2-fold for a 12-point curve with a concentration range of 6.67-0.00325 nM to assess binding and calculate half-maximal concentration (EC₅₀) for binding to primary human dendritic cells (FIG. 5B). Antibodies were serially diluted and incubated with cells in PBS with 1% BSA, 1 mM EDTA for 1 hour on ice (4° C.). Cells were pelleted and resuspended with goat anti-mouse secondary antibody conjugated with APC (BD Biosciences) at a 1:200 dilution in buffer. Secondary detection antibody was incubated for 30 minutes on ice (4° C.), then cells were washed 3 times in buffer before analyzing on a BD FACS Canto for APC MR. Data were analyzed with FlowJo Software (TreeStar).

For B1, the EC50 was 0.336 nM.

The binders below were run against T1, human Siglec-7 expressed on human cells … (assay: FACS titration on primary human dendritic cells, donor 359, 4 C).
Procedure: as §3

With B1 the EC50 was 0.301 nM.

The binders below were run against T2, Histidine-tagged human Siglec-7 (NovoProtein) (human, UniProt Q9Y286 19-357, limits assumed) (assay: SPR (BiaCore T200, 25 C), antibody captured on anti-mouse IgG, Siglec-7-His 20 nM, single-concentration kinetics).
T2 construct: Bought protein; also called purified Siglec-7-his tagged protein; not shown: histidine tag
Procedure: (§4) SPR data was collected at a rate of 10 Hz at 25′ C on a BiaCore T200 instrument. Data analysis was performed using BiaCore T200 Evaluation Software, version 2.0. HBS-EP+ (100 mM HEPES, 1.5 M NaCl, 30 mM EDTA, 0.5% v/v Surfactant P20, pH 7.4) was used as running buffer and for preparing reagents.
(§5) Mouse-derived antibodies (25 nM) against Siglec-7 were captured (60 s contact time, 30 μL/min flow rate, 0 s stabilization time) on a CM5 sensor chip (GE Healthcare) immobilized with anti-mouse IgG. Histidine-tagged human Siglec-7 (NovoProtein) was then flowed over the captured anti-Siglec-7 surface (120 s contact time, 30 μL/min flow rate, 300 s dissociation time). Concentration of antigen ranged from 5 nM to 100 nM, depending on information obtained from an initial screen. Duplicate single-concentration trials were performed and bracketed by a blank (0 nM antigen) sample. The chip surface was regenerated in between cycles using 10 mM glycine-HCl, pH1.7 (60 s contact time, 30 μL/min flow rate, 60 s stabilization time). The resulting SPR signal was obtained as the difference in response from measurements performed on a blank flow cell.
(§6) Affinity constants (KD) were calculated from the ratio kd/kₐ. For one antibody (clone 1E8), we validated the single-concentration analysis with a multiple-concentration approach (five concentrations of antigen used, plus one blank).

T2 sequence (Q9Y286 19-357 limits assumed): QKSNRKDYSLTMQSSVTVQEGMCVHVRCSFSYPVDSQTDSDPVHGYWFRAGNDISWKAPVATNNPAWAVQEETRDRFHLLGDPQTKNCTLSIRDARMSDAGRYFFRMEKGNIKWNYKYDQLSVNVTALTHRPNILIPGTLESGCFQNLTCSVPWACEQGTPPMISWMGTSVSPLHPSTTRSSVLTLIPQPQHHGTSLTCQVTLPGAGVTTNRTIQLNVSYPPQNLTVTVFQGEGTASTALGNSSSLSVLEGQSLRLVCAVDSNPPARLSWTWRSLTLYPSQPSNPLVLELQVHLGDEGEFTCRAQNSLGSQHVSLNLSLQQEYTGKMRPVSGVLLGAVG

In order of falling Kd:
1. B4  1 nM
2. B5  0.1 nM

The binders below were run against T2, Histidine-tagged human Siglec-7 … (assay: SPR (BiaCore T200, 25 C), antibody captured on anti-mouse IgG, Siglec-7-His 25 nM, single-concentration kinetics).
Procedure: as §4, §5, §6

In order of falling Kd:
1. B2  1 nM
2. B1  0.3 nM

What follows are binders tested against T2, Histidine-tagged human Siglec-7 … (assay: SPR (BiaCore T200, 25 C), antibody captured on anti-mouse IgG, Siglec-7-His 35 nM, single-concentration kinetics).
Procedure: as §4, §5, §6

For B3, the Kd was 0.3 nM.

Each binder was assayed against T3, Siglec-7-Fc (plate immobilized) (human, UniProt Q9Y286 19-357, limits assumed) (assay: RBC solid adhesion assay, plate-coated Siglec-7-Fc, antibody 0.5 or 1.0 ug/ml; % of RBC binding without antibody).
T3 construct: also called Siglec-7-Fc protein; immobilized Siglec-7; not shown: Fc part
Procedure: To determine which antibodies compete with ligand binding to Siglec-7, a red blood cell (RBC) solid adhesion assay was carried out in accordance with standard protocols (Kelm et al., Current Biology, 1994). Red blood cells are highly decorated with glycoproteins containing sialic acids: therefore, the ability of an antibody to block RBC binding to immobilized Siglec-7 can be used to determine ligand interference. Briefly, 5 μg/ml Siglec-7-Fc was coated overnight at RT in 96 well Immunolon plates, then washed with PBS, blocked for one hour with binding buffer (PBS containing %0.25 BSA 1 mM CaCl₂), Siglec-7 antibodies (0.5 μg/ml or 1.0 μg/ml) were bound for one hour at RT with gentle rocking. After removal of unbound antibody, red blood cells were added to each well at a concentration of 3.0×10⁶ cells per ml and incubated at RT for one hour. Unbound RBCs were then carefully washed off 3× with PBS, and water was added to each well for hypotonic lysis of bound RBCs. The plate was transferred to −80° C. for 10 minutes, followed by 37° C. for 15 minutes. Bound RBCs were detected by peroxidase activity, followed by 2N sulfuric acid to stop the reaction. Signal was detected at […]. Data was calculated as a percent of RBC binding to plate bound Siglec-7-Fc in the absence of antibody.

T3 sequence (Q9Y286 19-357 limits assumed): as above

In order of rising “Percent RBC Binding to Siglec-7” value:
1. B3  11.2%
2. B5  14.5%
3. B1  20.2%
4. B2  26.8%
5. B4  89.5%
